Measured values published in US20090018093.

Assays:
[1] = test system: Immunoglobulin E (IgE) (Homo sapiens), P01854-1; assay: inhibition; conditions: 2'-F C,U
[2] = test system: Immunoglobulin E (IgE) (Homo sapiens), P01854-1; assay: FP; conditions: 2'-F C and U; nitrocellulose dot blot filter, not fluorescence; biphasic, KD2 12.5 nM; 1xSHMCK + 0.1 mg/mL tRNA, RT
[3] = test system: Immunoglobulin E (IgE) (Homo sapiens), P01854-1; assay: filter; conditions: 2'-F C and U
[4] = molecular target: T1, Immunoglobulin E (IgE), cynomolgus (Macaca fascicularis) (UniProt A0A7N9DC98); assay: inhibition; conditions: 2'-F C,U; no inhibition of monkey IgE-FceR1 up to 1 uM
T1 sequence: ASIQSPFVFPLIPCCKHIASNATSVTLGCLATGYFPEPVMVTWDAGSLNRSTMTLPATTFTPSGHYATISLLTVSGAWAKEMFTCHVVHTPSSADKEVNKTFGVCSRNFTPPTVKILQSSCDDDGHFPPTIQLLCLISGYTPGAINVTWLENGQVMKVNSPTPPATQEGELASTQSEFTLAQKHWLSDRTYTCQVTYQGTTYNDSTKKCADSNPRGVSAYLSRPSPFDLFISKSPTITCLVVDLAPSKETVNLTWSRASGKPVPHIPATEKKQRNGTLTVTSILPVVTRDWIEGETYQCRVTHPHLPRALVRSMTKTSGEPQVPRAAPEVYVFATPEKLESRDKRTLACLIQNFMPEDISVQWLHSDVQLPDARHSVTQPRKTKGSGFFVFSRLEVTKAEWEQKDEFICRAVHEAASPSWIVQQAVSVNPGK

[5] = test system: Immunoglobulin E (IgE) (Homo sapiens), P01854-1; assay: FP_none; conditions: 2'-OMe G2 and all C,U, rest 2'-deoxy, 3' idT [2'-OMe at 2,3,4,5,11,12,13,15,22,23, 3'-idT at 24]

Sequence of Immunoglobulin E (IgE) (Homo sapiens), P01854-1 (P01854 other isoform, or with tags, fused parts or gaps): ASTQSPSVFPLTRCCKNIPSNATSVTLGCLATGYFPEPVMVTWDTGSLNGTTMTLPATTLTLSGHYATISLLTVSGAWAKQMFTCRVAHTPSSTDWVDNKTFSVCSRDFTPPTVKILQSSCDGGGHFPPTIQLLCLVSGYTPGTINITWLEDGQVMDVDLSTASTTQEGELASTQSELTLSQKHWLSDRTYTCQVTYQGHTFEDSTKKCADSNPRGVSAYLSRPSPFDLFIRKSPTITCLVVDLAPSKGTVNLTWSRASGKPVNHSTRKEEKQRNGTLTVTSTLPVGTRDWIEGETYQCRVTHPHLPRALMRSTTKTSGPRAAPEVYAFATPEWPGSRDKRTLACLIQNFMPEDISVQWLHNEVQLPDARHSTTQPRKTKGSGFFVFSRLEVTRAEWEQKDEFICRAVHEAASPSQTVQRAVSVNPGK

Which IC50 ([1]; ELISA FceR1-Fc, FACS 14 nM (Table 25)) does the source give for “GGGAAAAGCGAAUCAUACACAAGACGUCGCCAGAUUGAGUGUCGUGGUUCGGGUUGAGGCGGAAGCUCCGCCAGAGACCAACCGAGAA [rRfY clone SEQ 11]” here?
The IC50 was 2.6 nM.

What about the Kd [2] of the same sequence?
The Kd was 0.144 nM.

How did the Kd ([3]; KD2 17.1 nM, 1xSHMCK + tRNA) turn out when “GGAGAUCCGAGGGUGGGCAAUAGGCUCACAAGGGUUU [rRfY minimer SEQ 93]” was run?
The Kd was 0.65 nM.

What about the IC50 ([1]; FACS, 15 nM IgE) of the same sequence?
The IC50 was 12.5 nM.

What about the IC50 [4] of the same sequence?
The IC50 was > 1000 nM.

For “GGGAAAAGCGAAUCAUACACAAGACGUCGCCAGAUUGAGUGUCGUGGUU [rRfY minimer SEQ 90]”, which Kd ([3]; KD2 28.2 nM, 1xSHMCK + 0.1 mg/mL tRNA) is on record?
The Kd was 0.33 nM.

And the IC50 [4]?
Its IC50 is > 1000 nM.

For AGCCUGGGGACCCAUGGGGGGCU [ARC1251], which Kd [5] is on record?
Its Kd is 7 nM.
